Publication PMC8671415

Tests used:
[1] = target: RAGE peptide (Sino Biological), receptor for advanced glycation end products (UniProt Q15109); experiment: SPR; RANK or RAGE (5 μg/ml in 10 mM sodium acetate, pH 5.5) immobilised on the sensor chip; AOPPs 350 to 1050 μg/ml injected, 1050 μg/ml RSA as vehicle; 25 °C, 30 μl/min; PlexArray HT A100
[2] = target: RANK peptide (Sino Biological), receptor activator of nuclear factor κ B (UniProt Q9Y6Q6); experiment: as above
UniProt Q9Y6Q6, sequence (Q9Y6Q6 30-212): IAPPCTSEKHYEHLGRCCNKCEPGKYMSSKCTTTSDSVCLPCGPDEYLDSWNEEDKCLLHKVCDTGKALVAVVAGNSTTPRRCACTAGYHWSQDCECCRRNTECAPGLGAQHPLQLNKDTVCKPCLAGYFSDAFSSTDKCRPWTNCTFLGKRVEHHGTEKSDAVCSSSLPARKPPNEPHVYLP

UniProt Q15109, sequence (Q15109 23-342): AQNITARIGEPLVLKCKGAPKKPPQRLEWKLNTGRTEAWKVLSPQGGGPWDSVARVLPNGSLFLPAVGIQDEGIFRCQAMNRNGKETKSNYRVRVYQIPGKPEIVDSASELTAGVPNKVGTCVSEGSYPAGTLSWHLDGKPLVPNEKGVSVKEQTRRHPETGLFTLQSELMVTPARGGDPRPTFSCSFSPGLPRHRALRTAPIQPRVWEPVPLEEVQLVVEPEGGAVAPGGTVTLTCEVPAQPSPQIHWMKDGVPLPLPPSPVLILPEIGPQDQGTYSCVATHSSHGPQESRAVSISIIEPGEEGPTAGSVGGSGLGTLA

Kd [1]: 1340 nM
Kd [2]: 3020 nM
Substance: Advanced oxidation protein products (AOPPs), prepared from rat serum albumin with hypochlorous acid (from UniProt P02770 25-608)
